Measurements from paper PMC11880807.

T1: EXOG (EXOG-ΔN58) (human, UniProt Q9Y2C4 59-368)
T1 sequence: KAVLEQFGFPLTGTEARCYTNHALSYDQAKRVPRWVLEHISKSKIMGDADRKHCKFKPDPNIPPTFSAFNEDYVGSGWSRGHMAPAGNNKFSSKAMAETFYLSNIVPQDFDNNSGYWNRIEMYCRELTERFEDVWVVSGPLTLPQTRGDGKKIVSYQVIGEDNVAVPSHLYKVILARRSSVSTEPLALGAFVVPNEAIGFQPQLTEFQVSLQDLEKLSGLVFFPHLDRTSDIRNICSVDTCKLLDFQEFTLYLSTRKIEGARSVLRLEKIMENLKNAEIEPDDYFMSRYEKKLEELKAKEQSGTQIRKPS

T2: EXOG-ΔC68 (human, UniProt Q9Y2C4 59-300)
T2 sequence: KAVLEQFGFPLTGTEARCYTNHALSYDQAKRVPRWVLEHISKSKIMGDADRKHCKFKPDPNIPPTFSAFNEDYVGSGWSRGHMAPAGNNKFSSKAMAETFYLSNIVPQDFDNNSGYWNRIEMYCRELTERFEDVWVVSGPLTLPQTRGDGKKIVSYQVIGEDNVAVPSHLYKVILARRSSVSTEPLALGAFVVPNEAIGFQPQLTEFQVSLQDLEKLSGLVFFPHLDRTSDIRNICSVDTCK


Experiments:
Test in all cases: MST
[1] = target: T1, EXOG (EXOG-ΔN58)
[2] = target: T2, EXOG-ΔC68
[3] = target: T2, EXOG-ΔC68; remark: listed apart in the source

| Binder | Kd [1] | binding result [2] | Kd [3] |
| --- | --- | --- | --- |
| AGTTCGTTATCGTCGC (ssDNA) [ssDNA 16-mer O10] | 25.1 ± 4.5 nM | no binding |  |
| AGUUCGUUAUCGUCGC (ssRNA) [ssRNA 16-mer O11] |  |  | 155 ± 31.9 nM |
